This is an account of results in article PMC3416963.

Positions count from the first letter of the chain named. In names and notes the source's numbering stands.

Substrate in the data set: O=C(O)c1cc(C(=O)O)oc(=O)c1
Put plainly: purified protein. The data set is classed as biochemical, Sphingobium sp. SYK-6. Particulars: 50 mM BICINE pH 8.25, 30 °C.

B1: LigI (Sphingobium sp. SYK-6; H178A) (protein)
chain: TNDERILSWNETPSKPRYTPPPGAIDAHCHVFGPMAQFPFSPKAKYLPRDAGPDMLFALRDHLGFARNVIVQASCHGTDNAATLDAIARAQGKARGIAVVDPAIDEAELAALHEGGMRGIRFNFLKRLVDDAPKDKFLEVAGRLPAGWHVVIYFEADILEELRPFMDAIPVPIVIDAMGRPDVRQGPDGADMKAFRRLLDSREDIWFKATCPDRLDPAGPPWDDFARSVAPLVADYADRVIWGTDWPHPNMQDAIPDDGLVVDMIPRIAPTPELQHKMLVTNPMRLYWSEEM
As for B1, the Km is 214 ± 44 µM, the turnover number (kcat) was determined as 8 ± 0.9 s⁻¹ and the kcat/Km was found to be 37000 ± 4000 M⁻¹ s⁻¹.

B2: LigI (Sphingobium sp. SYK-6; H29N) (protein)
chain: B1 chain with H28N, A177H
With B2, the Michaelis-Menten constant (Km) was found to be 720 ± 122 µM, the kcat was found to be 0.4 ± 0.04 s⁻¹ and the catalytic efficiency (kcat/Km) is 500 ± 37 M⁻¹ s⁻¹.

B3: LigI (Sphingobium sp. SYK-6; Y47F) (protein)
chain: B1 chain with Y46F, A177H
Take B3: the Km worked out at 217 ± 41 µM, the kcat came out at 26 ± 2 s⁻¹ and the specificity constant (kcat/Km) amounted to 120000 ± 2000 M⁻¹ s⁻¹.

B4: LigI (Sphingobium sp. SYK-6; H178C) (protein)
chain: B1 chain with A177C
On to B4, for which the Km was found to be 41 ± 7 µM, the kcat came to 32 ± 4 s⁻¹ and the kcat/Km was found to be 780000 ± 50000 M⁻¹ s⁻¹.

B5: LigI (Sphingobium sp. SYK-6; Y154F) (protein)
chain: B1 chain with Y153F, A177H
For B5, the Km amounted to 238 ± 19 µM, the kcat was 8.7 ± 0.3 s⁻¹ and the kcat/Km is 37000 ± 200 M⁻¹ s⁻¹.

B6: LigI (Sphingobium sp. SYK-6; D246N) (protein)
chain: B1 chain with A177H, D245N
Turning to B6, the Michaelis constant (Km) is 66 ± 13 µM, the turnover number (kcat) stood at 0.023 ± 0.001 s⁻¹ and the catalytic efficiency (kcat/Km) was determined as 200 ± 34 M⁻¹ s⁻¹.

B7: LigI (Sphingobium sp. SYK-6; R122M) (protein)
chain: B1 chain with R121M, A177H
For the protein B7, the Km came out at 90 ± 15 µM, the turnover number (kcat) is 0.02 ± 0.001 s⁻¹ and the kcat/Km was 200 ± 22 M⁻¹ s⁻¹.

B8: LigI (Sphingobium sp. SYK-6; H31N) (protein)
chain: B1 chain with H30N, A177H
On to B8, for which the Km came to 89 ± 20 µM, the turnover number (kcat) came out at 3.6 ± 0.3 s⁻¹ and the kcat/Km amounted to 41000 ± 6000 M⁻¹ s⁻¹.

B9: LigI (Sphingobium sp. SYK-6; R128M) (protein)
chain: B1 chain with R127M, A177H
With B9, the Km turned out to be 465 ± 104 µM, the kcat was 5 ± 0.4 s⁻¹ and the kcat/Km is 11000 ± 7000 M⁻¹ s⁻¹.
